Substitutions are numbered along the chain they refer to.
B1: mAb 67 (antibody, V domains shown)
VH: EVQLVESGGDLVQPGRSLRLSCAASGFTFDDCVIHWVRQAPGKGLEWVSGITWNSGRIGYADSVKGRFTISRDNAKNSLYLQMNSLRVEDTALYYCAKEGNYDFWSTYYRGYFDLWGRGTLVTVSS
VL: DIQMTQSPSSLSASVGDRVTITCRASQGIRNDLGWYQQKPGIAPKRLIYAASSLQGGVPLRFSGSGSGTEFTLTISSLQPEDFATYYCLQHNSYPYTFGQGTKLEIK
B2: mAb 71 (antibody, V domains shown)
VH: QVQLVQSGAEVRKPGASVKVSCKASGYTFTKYDVNWVRQAPGQGLEWMGWMNSNNGNIGYAQKFQGRVTMTRKTSISTAYMELSSLRSEDTAVYYCAREGHYDFWRGFYNFDYWGQGTLVTVSS
VL: B1 VL with G28D, R30K, I42K, G56S, L60S, S93F, Y96I, K103R
B3: mAb 74 (antibody, V domains shown)
VH: EVQLVESGGGLVQPGRSLRLSCAASGFTFADYVMHWVRQAPGKGLEWVSGINWNNARIGYVGSVKGRFTISRDNAKNSLYLQMTSLRVEDTALYHCVREGNFDFWSAYYRGFLDLWGRGTLVTVSS
VL: B1 VL with N31S, I42K, A50G, L60S
B4: mAb 73 (antibody, V domains shown)
VH: EVELVESGGGLVQPGRSLRLSCAASGFTFDDKVMHWVRQAPGKGLEWVSCINWNSGHIGYADSVKGRFTISRDNARTSLYLQMNSLRPEDTALYYCVREGNYDFWSGYYRGFFDLWGRGTLVTVSS
VL: B1 VL with I42K, L60S, N92T, Y96F
B5: mAb 85 (antibody, V domains shown)
VH: QVQLVQSGAEVKKPGASVKVSCKASGYTVTGYYMHWVRQAPGQGLEWMGWINPNSGGTNFAQNFQGRVTMTRDTSISTFYMDLNRLRSDDTAVYYCARGGAPVSYWFFDLWGRGTLVTVSS
VL: DIQMTQSPSSLSASVGDRVTITCRASQSISRYLNWYQQKPGKAPKVLIYNTSSLKSGVPSRFSGSGSGTDFTLTISSLQPEDFGTFYCQQSHSTPFTFGPGTKVDIK
B6: mAb 66 (antibody, V domains shown)
VH: B5 VH with N84S
VL: B5 VL with G84A, F86L
B7: mAb 79 (antibody, V domains shown)
VH: B5 VH with T28I, Q43H, R87T
VL: B5 VL with S28N, S30N, R31S, Q37H, S53T, D70Y, G84A
B8: mAb 83 (antibody, V domains shown)
VH: QVQLVESGGGVVQPGRSLRLSCAASGFTFSGYGMHWVRQAPGKGLDWVAIIYYNGNNKYYADSVKGRFTISRDNSKNTLYLQMNSLRAEDTAVYYCARGGGYNWFDPWGQGTLVIVSS
VL: DIQMTQSPSSLSASVGDRVTITCRPSQIIINYLNWYQQKPGKAPKLLIYAASSLQSGVPSRFSGSGSGTDFTLTISSLQPEDFATYYCQQSYSTPFTFGRGTRLEIK
B9: mAb 99 (antibody, V domains shown)
VH: B8 VH with V2G, S30R, Y32F, D46E, N54D, N56K, R98K, I115T
VL: DIQMTQSPSSLSASVGDRVTITCRASQSISTYLNWYQQKPGKAPKLLIYSASSLQSGVPSRFSGSGSGTDFTLTISNLQPEDFAIYYCQRSYSPPFTFGPGTKLDIR
B10: mAb 95 (antibody, V domains shown)
VH: B8 VH with V2A, Q3H, A23S, D46E, I50L, Y53F, N54D, N56R, I115T
VL: DIQMTQSPSSLSASVGDRVTITCRASQSINNYLSWYQQKPGKAPKLLIYLASNLQSGVPSRFSGSGSGTDFTLTISSLQPEDFATYYCQLSYRSPFTFGPGTKVDVK
B11: mAb 93 (antibody, V domains shown)
VH: B8 VH with S30R, D46E, I115T
VL: B9 VL with T31N, K39E, S50T, D70A, N77S, Y92S, R107K
B12: mAb 97 (antibody, V domains shown)
VH: B8 VH with V2G, S30R, D46E, N54D, N56K, S85N, A88V, I115T
VL: B9 VL with V15I, T31N
B13: mAb 100 (antibody, V domains shown)
VH: B8 VH with A23V, S30R, D46E, N54D, N56K, A88V, V93L, I115T
VL: B9 VL with S50T, D70V, N77S, K103R, R107K
B14: mAb 86 (antibody, V domains shown)
VH: B8 VH with V5A, A23E, N54D, N56K, I115T
VL: B8 VL with I28T, I30S, N31K, S93I, F96I
B15: mAb 94 (antibody, V domains shown)
VH: B8 VH with Q3H, A23S, D46E, I50L, Y53F, N54D, N56R, I115T
VL: B10 VL with N30S, S34N, N53S, S76N, T85S, R93S, K107N
B16: mAb 101 (antibody, V domains shown)
VH: B8 VH with V2G, S30R, Y32F, D46E, N54D, N56K, T78M, R98K, I115T
VL: B9 VL
B17: mAb 72 (antibody, V domains shown)
VH: EVQLVDSGGGLVQPGGSLRLSCAASGFTFSSYWMSWVRQAPGKGLEWVANIKQDGSEKYYVDSVKGRFTISRDNVKNSLSLEMNSLRAEDTALYYCARDESSSWYWYFDLWGRGTLVTVSS
VL: DIQMTQSPSTLSASVGDRVTITCRASQSISKWLAWYQQKPGKAPKLLIYKASSLENGVPSRFSGSGSGTEFTLTISSLQPDDFATYYCQQYSSYSRTFGQGTKVEIK

biological target: T1, cynomolgus monkey CD3 expressed on primary T cells (cynomolgus monkey, UniProt Q95LI5 22-198; Q95LI8 22-171; Q95LI7 23-181); test: flow cytometry, 25 nM, cyno primary T cells
T1 construct: whole, on cells; CD3 complex on purified cynomolgus monkey T cells; also called cyno CD3
Method: (§1) Purified antibodies were confirmed to bind CD3 expressed on cells using the CytoFLEX S or LX flow cytometers (Beckman Coulter). Antibodies were diluted to 25 nM in FACS buffer (PBS+2% FBS) and were incubated with CD3-expressing cells for 30 minutes at 4° C. […] The median fluorescence intensity of the binding signal for each antibody was normalized to the isotype control to obtain a fold over isotype value. An antibody with a fold over isotype (FOI) of ≥10 was considered to be positive for binding.

T1 sequence (Q95LI5 22-198, chain 1 of 3): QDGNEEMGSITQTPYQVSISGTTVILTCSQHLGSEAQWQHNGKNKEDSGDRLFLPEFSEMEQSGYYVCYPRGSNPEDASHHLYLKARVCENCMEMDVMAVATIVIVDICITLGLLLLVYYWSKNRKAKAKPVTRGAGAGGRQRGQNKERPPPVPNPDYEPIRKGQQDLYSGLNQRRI
T1 sequence (Q95LI8 22-171, chain 2 of 3): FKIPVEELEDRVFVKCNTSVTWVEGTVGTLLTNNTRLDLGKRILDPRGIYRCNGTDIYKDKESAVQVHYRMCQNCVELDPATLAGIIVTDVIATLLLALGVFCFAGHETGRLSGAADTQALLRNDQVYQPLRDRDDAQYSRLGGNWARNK
T1 sequence (Q95LI7 23-181, chain 3 of 3): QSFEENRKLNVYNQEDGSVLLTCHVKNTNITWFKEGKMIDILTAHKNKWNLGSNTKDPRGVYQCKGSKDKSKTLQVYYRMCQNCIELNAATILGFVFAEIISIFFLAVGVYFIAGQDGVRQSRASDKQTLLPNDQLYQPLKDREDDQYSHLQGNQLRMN

binding result	Binder
no binding (tested: FOI >=10 = positive)	B1
no binding (tested: FOI >=10 = positive)	B2
no binding (tested: FOI >=10 = positive)	B3
no binding (tested: FOI >=10 = positive)	B4
no binding (tested: FOI >=10 = positive)	B5
no binding (tested: FOI >=10 = positive)	B6
no binding (tested: FOI >=10 = positive)	B7
no binding (tested: FOI >=10 = positive)	B8
no binding (tested: FOI >=10 = positive)	B9
no binding (tested: FOI >=10 = positive)	B10
no binding (tested: FOI >=10 = positive)	B11
no binding (tested: FOI >=10 = positive)	B12
no binding (tested: FOI >=10 = positive)	B13
no binding (tested: FOI >=10 = positive)	B14
no binding (tested: FOI >=10 = positive)	B15
no binding (tested: FOI >=10 = positive)	B16
no binding (tested: FOI >=10 = positive)	B17

biological target: T2, human CD3 expressed on cells (human, UniProt P07766 23-207; P04234 22-171; P09693 23-182); test: flow cytometry, 25 nM
T2 construct: whole, on cells; CD3 complex on Jurkat cells and on human primary T cells
Method: as §1

T2 sequence (P07766 23-207, chain 1 of 3): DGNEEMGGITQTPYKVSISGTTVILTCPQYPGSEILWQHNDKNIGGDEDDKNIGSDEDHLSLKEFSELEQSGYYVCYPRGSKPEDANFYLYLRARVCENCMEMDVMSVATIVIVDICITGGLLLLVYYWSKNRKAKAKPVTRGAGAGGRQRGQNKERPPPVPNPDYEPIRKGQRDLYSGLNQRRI
T2 sequence (P04234 22-171, chain 2 of 3): as the sequence (Q95LI8 22-171, chain 2 of 3) above, with V5I, K15N, V20I, T32S, N33D, N34I, A64T, N74S, L83V, R141H counted along it
T2 sequence (P09693 23-182, chain 3 of 3): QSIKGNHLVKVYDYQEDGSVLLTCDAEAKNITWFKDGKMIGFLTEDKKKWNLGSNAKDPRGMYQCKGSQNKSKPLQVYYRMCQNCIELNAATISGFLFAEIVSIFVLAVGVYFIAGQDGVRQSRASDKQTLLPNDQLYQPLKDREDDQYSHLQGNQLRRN

Human primary T Cell Binding (FOI)	Jurkat Cell Binding (FOI)	Binder
72.4	70.2	B1
108	100	B2
146	151	B3
74.5	109	B4
195	181	B5
192	172	B6
199	171	B7
173	161	B8
218	198	B9
206	177	B10
198	175	B11
211	192	B12
229	241	B13
189	175	B14
174	170	B15
233	216	B16
91.4	98.7	B17
